Reference: PMC8880714, “Antimicrobial effect and mechanism of bovine lactoferrin against the potato common scab pathogen Streptomyces scabiei” (PLoS ONE, 2022)

Columns and labels:
Streptomyces scabiei S58 [1] = experiment: microbe, parasite or virus in culture; type: cell-based; conditions: TSB, 28 °C, 72 h, absorbance 600 nm; for IC50: S. scabiei S58 spores 2 × 10^5/mL, probit analysis, mean ± SD, n = 3, read-out: Antimicrobial activity (IC50)
Protocol: S. scabiei S58, isolated from potatoes grown in Kagoshima, Japan, was used in this study. […] For antimicrobial assays, the spores of the isolate were incubated at 28 °C in tryptic soy broth (TSB) (Becton Dickinson, Sparks, USA). Escherichia coli strains JM109 and BL21(λDE3) were grown at 37 °C in Luria-Bertani broth supplemented with 100 μg/mL ampicillin for propagation.
(§1) A 12-well plate was used to assess the antimicrobial activity of LF, hydrolysate, LFcinB, and synthetic peptides. One milliliter of TSB containing each test substance was added to each well and then the spores of S. scabiei S58, prepared as described above, were added into each well at a final concentration of 2 × 10^5 spores/mL. The mixture was incubated at 28 °C for 72 h, and the absorbance was measured at 600 nm to monitor bacterial growth. To further confirm whether the antimicrobial activity is due to growth inhibition or bactericidal effect, 1 mL of TSB containing 2 ×10^3 spores and bLF (1 mg/mL) was incubated at 28 °C and directly cultured on STA after 5, 10, 15, 24, 48, and 72 h of incubation to count the emerging colonies. All assays were performed in duplicate and were repeated three times.

Streptomyces scabiei S58 [2] = experiment: Bactericidal effect assay: colony counting on starch agar after treatment; type: cell-based; conditions: bLF 1 mg/mL, 2 × 10^3 spores in 1 mL TSB, 28 °C
Protocol: as §1
Fig 3 Bactericidal effect of bovine-derived lactoferrin (bLF) (A) and minimal inhibitory concentration (MIC) of bLF (B) on Streptomyces scabiei S58. For the assay of bactericidal effect, the mixture of bLF and spores (2 × 10^3/mL) was incubated at 28 °C and directly cultured on starch agar in a time-dependent manner. The number of colonies emerging on the plates was counted. For the MIC assay, the mixture of bLF and spores (2 × 10^5/mL) was incubated at 28 °C for 72 h in tryptic soy broth and the absorbance was measured at 600 nm to monitor bacterial growth. […]

Molecule | IC50 (Streptomyces scabiei S58 [1]) | Minimal inhibitory concentration (no growth observed at this concentration and above) (Streptomyces scabiei S58 [1]; spores 2 × 10^5/mL) | Number of colonies after treatment, at 5 h (Streptomyces scabiei S58 [2]; plated on starch agar after 5 h) | Number of colonies after treatment, at 48 h (Streptomyces scabiei S58 [2]; plated on starch agar after 48 h)
Human lactoferrin (hLF): Human-derived lactoferrin purchased from FUJIFILM Wako (protein, UniProt P02788 20-710, looked up) Lactotransferrin: GRRRSVQWCAVSQPEATKCFQWQRNMRKVRGPPVSCIKRDSPIQCIQAIAENRADAVTLDGGFIYEAGLAPYKLRPVAAEVYGTERQPRTHYYAVAVVKKGGSFQLNELQGLKSCHTGLRRTAGWNVPIGTLRPFLNWTGPPEPIEAAVARFFSASCVPGADKGQFPNLCRLCAGTGENKCAFSSQEPYFSYSGAFKCLRDGAGDVAFIRESTVFEDLSDEAERDEYELLCPDNTRKPVDKFKDCHLARVPSHAVVARSVNGKEDAIWNLLRQAQEKFGKDKSPKFQLFGSPSGQKDLLFKDSAIGFSRVPPRIDSGLYLGSGYFTAIQNLRKSEEEVAARRARVVWCAVGEQELRKCNQWSGLSEGSVTCSSASTTEDCIALVLKGEADAMSLDGGYVYTAGKCGLVPVLAENYKSQQSSDPDPNCVDRPVEGYLAVAVVRRSDTSLTWNSVKGKKSCHTAVDRTAGWNIPMGLLFNQTGSCKFDEYFSQSCAPGSDPRSNLCALCIGDEQGENKCVPNSNERYYGYTGAFRCLAENAGDVAFVKDVTVLQNTDGNNNEAWAKDLKLADFALLCLDGKRKPVTEARSCHLAMAPNHAVVSRMDKVERLKQVLLHQQAKFGRNGSDCPDKFCLFQSETKNLLFNDNTECLARLHGKTTYEKYLGPQYVAGITNLKKCSTSPLLEACEFLRK | 138000 ± 7960 nM | – | – | –
Bovine lactoferrin (bLF): Bovine-derived lactoferrin purchased from FUJIFILM Wako (protein, UniProt P24627 20-708, looked up) Lactotransferrin: APRKNVRWCTISQPEWFKCRRWQWRMKKLGAPSITCVRRAFALECIRAIAEKKADAVTLDGGMVFEAGRDPYKLRPVAAEIYGTKESPQTHYYAVAVVKKGSNFQLDQLQGRKSCHTGLGRSAGWIIPMGILRPYLSWTESLEPLQGAVAKFFSASCVPCIDRQAYPNLCQLCKGEGENQCACSSREPYFGYSGAFKCLQDGAGDVAFVKETTVFENLPEKADRDQYELLCLNNSRAPVDAFKECHLAQVPSHAVVARSVDGKEDLIWKLLSKAQEKFGKNKSRSFQLFGSPPGQRDLLFKDSALGFLRIPSKVDSALYLGSRYLTTLKNLRETAEEVKARYTRVVWCAVGPEEQKKCQQWSQQSGQNVTCATASTTDDCIVLVLKGEADALNLDGGYIYTAGKCGLVPVLAENRKSSKHSSLDCVLRPTEGYLAVAVVKKANEGLTWNSLKDKKSCHTAVDRTAGWNIPMGLIVNQTGSCAFDEFFSQSCAPGADPKSRLCALCAGDDQGLDKCVPNSKEKYYGYTGAFRCLAEDVGDVAFVKNDTVWENTNGESTADWAKNLNREDFRLLCLDGTRKPVTEAQSCHLAVAPNHAVVSRSDRAAHVKQVLLHQQALFGKNGKNCPDKFCLFKSETKNLLFNDNTECLAKLGGRPTYEEYLGTEYVTAIANLKKCSTSPLLEACAFLTR | 458 ± 74 nM | 3.9 µM | sharp decrease in the number of colonies | only a few colonies remained
Apo-bLF: Iron-depleted (apo) bLF, iron saturation 0.35% (protein, UniProt P24627 20-708, looked up, iron-depleted (apo)) Lactotransferrin: APRKNVRWCTISQPEWFKCRRWQWRMKKLGAPSITCVRRAFALECIRAIAEKKADAVTLDGGMVFEAGRDPYKLRPVAAEIYGTKESPQTHYYAVAVVKKGSNFQLDQLQGRKSCHTGLGRSAGWIIPMGILRPYLSWTESLEPLQGAVAKFFSASCVPCIDRQAYPNLCQLCKGEGENQCACSSREPYFGYSGAFKCLQDGAGDVAFVKETTVFENLPEKADRDQYELLCLNNSRAPVDAFKECHLAQVPSHAVVARSVDGKEDLIWKLLSKAQEKFGKNKSRSFQLFGSPPGQRDLLFKDSALGFLRIPSKVDSALYLGSRYLTTLKNLRETAEEVKARYTRVVWCAVGPEEQKKCQQWSQQSGQNVTCATASTTDDCIVLVLKGEADALNLDGGYIYTAGKCGLVPVLAENRKSSKHSSLDCVLRPTEGYLAVAVVKKANEGLTWNSLKDKKSCHTAVDRTAGWNIPMGLIVNQTGSCAFDEFFSQSCAPGADPKSRLCALCAGDDQGLDKCVPNSKEKYYGYTGAFRCLAEDVGDVAFVKNDTVWENTNGESTADWAKNLNREDFRLLCLDGTRKPVTEAQSCHLAVAPNHAVVSRSDRAAHVKQVLLHQQALFGKNGKNCPDKFCLFKSETKNLLFNDNTECLAKLGGRPTYEEYLGTEYVTAIANLKKCSTSPLLEACAFLTR | 2390 ± 203 nM | – | – | –
Holo-bLF: Iron-saturated (holo) bLF, iron saturation 95.5% (protein, UniProt P24627 20-708, looked up, iron-saturated (holo)) Lactotransferrin: APRKNVRWCTISQPEWFKCRRWQWRMKKLGAPSITCVRRAFALECIRAIAEKKADAVTLDGGMVFEAGRDPYKLRPVAAEIYGTKESPQTHYYAVAVVKKGSNFQLDQLQGRKSCHTGLGRSAGWIIPMGILRPYLSWTESLEPLQGAVAKFFSASCVPCIDRQAYPNLCQLCKGEGENQCACSSREPYFGYSGAFKCLQDGAGDVAFVKETTVFENLPEKADRDQYELLCLNNSRAPVDAFKECHLAQVPSHAVVARSVDGKEDLIWKLLSKAQEKFGKNKSRSFQLFGSPPGQRDLLFKDSALGFLRIPSKVDSALYLGSRYLTTLKNLRETAEEVKARYTRVVWCAVGPEEQKKCQQWSQQSGQNVTCATASTTDDCIVLVLKGEADALNLDGGYIYTAGKCGLVPVLAENRKSSKHSSLDCVLRPTEGYLAVAVVKKANEGLTWNSLKDKKSCHTAVDRTAGWNIPMGLIVNQTGSCAFDEFFSQSCAPGADPKSRLCALCAGDDQGLDKCVPNSKEKYYGYTGAFRCLAEDVGDVAFVKNDTVWENTNGESTADWAKNLNREDFRLLCLDGTRKPVTEAQSCHLAVAPNHAVVSRSDRAAHVKQVLLHQQALFGKNGKNCPDKFCLFKSETKNLLFNDNTECLAKLGGRPTYEEYLGTEYVTAIANLKKCSTSPLLEACAFLTR | 2180 ± 428 nM | – | – | –
